What was measured:
Assay in all cases: EMSA
[1] = target: T1, GroEL1 (untagged) (Mycobacterium tuberculosis) (UniProt P9WPE9)
T1 sequence: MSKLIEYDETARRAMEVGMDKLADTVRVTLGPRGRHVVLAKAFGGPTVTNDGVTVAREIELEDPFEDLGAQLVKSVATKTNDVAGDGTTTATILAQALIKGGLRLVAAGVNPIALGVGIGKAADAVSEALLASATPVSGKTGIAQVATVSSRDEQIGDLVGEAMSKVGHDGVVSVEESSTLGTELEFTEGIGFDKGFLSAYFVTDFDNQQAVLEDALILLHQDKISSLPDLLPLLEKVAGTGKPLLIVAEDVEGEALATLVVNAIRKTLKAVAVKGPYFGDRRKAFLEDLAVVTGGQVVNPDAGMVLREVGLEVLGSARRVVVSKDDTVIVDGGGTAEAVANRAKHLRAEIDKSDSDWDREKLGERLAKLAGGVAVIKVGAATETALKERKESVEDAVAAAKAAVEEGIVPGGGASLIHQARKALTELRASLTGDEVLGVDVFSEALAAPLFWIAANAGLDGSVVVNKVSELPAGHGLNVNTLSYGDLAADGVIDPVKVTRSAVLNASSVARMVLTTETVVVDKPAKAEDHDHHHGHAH

GroEL1 (untagged) [2] = target: T2, GroEL1 (untagged) (Mycobacterium tuberculosis, UniProt P9WPE9 1-539)
T2 sequence: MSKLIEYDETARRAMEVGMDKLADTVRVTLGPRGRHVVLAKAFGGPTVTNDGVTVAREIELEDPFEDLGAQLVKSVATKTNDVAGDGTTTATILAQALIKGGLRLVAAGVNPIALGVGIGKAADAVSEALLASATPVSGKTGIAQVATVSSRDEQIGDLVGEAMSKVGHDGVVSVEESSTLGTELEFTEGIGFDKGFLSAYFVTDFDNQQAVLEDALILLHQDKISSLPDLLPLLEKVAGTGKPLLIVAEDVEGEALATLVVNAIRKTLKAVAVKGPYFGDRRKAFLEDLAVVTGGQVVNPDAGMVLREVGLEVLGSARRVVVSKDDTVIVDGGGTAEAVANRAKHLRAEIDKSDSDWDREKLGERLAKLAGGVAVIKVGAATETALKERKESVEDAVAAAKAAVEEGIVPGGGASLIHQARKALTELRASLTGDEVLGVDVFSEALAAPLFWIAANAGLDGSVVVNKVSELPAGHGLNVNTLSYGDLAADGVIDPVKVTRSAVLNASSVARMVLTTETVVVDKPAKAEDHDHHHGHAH

GroEL1 (untagged) [3] = target: T2, GroEL1 (untagged); remark: listed apart in the source

TATATAGTCGACCCAGGTGATTCGGCATTCGTCCGCGCCCTCGCGCCGTCGTCGCGGGTGCCGACGCAGGGGTTAGCCGATTGCCATCTAGCACTCTATACATGAGAGTGCTAGCACTCAAGGGCGCCCCCTTGCTTCCTGGTTGCCAGCGTGTCTCTAGATATATA (double strand) [groES upstream region, 140 bp]
binding [1]: binds

B1: CIRCE2FR (dsDNA)
DNA 1: TTAGCCGATTGCCATCTAGCACTCTATACATGAGAGTGCTAGCACTCAAGGGCGCCCCCT
DNA 2: AGGGGGCGCCCTTGAGTGCTAGCACTCTCATGTATAGAGTGCTAGATGGCAATCGGCTAA
Kd (GroEL1 (untagged) [2]): 143 nM

B2: CIRCE2F ss (ssDNA)
DNA: TTAGCCGATTGCCATCTAGCACTCTATACATGAGAGTGCTAGCACTCAAGGGCGCCCCCT
binding result (GroEL1 (untagged) [3]): binds

B3: MutO2 ss (ssDNA)
DNA: ATACTTAGCCGATTGCCATCTAGCACTCTAGAGTGCTAGCACTCAAGGGCGCCCCCTATG
binding result (GroEL1 (untagged) [3]): binds

B4: MutO3 ss (ssDNA)
DNA: TTAGCCGATTGCCATTCCTGTACAAATACATGAGAGTGCTAGCACTCAAGGGCGCCCCCT
binding result (GroEL1 (untagged) [3]): binds

B5: MutO4 ss (ssDNA)
DNA: GTGCACTTAGCCGATTGCCATTCTATACATGAGACACTCAAGGGCGCCCCCTCTAGCTAG
binding result (GroEL1 (untagged) [3]): binds

B6: MutO5 ss (ssDNA)
DNA: TTAGCCGATTGCCATCTAGCACTCTGCGCCCCCTATACATGAGAGTGCTAGCACTCAAGG
binding result (GroEL1 (untagged) [3]): binds

B7: MutO6 ss (ssDNA)
DNA: TTAGCCGATTGCCATCTAGCACTCTATACATGTTGGAACGGACACTCAAGGGCGCCCCCT
binding result (GroEL1 (untagged) [3]): binds

B8: MutO7 ss (ssDNA)
DNA: TTAGCCGATTGCCATCACGCACTACGTAGTGTCTATGTATCGATCTCAAGGGCGCCCCCT
binding result (GroEL1 (untagged) [3]): binds

From article PMC2731897
